Data published in patent US20210079074A1 (Alector, published 2021).
Changes are numbered by the printed parent chain.

B1: anti-MS4A4A antibody 4A-381 (antibody, V domains shown)
VH: QVQLVQSGSELKKPGASVKVSCKASGYIFTSYGLSWVRQAPGQGLEWMGWINTYSGVPTYAQGFTGRFVFSLDTSVSTAYLQISSLKAEDTAVYYCARSMADYWGQGTLVTVSS
VL: DVVMTQSPLSLPVTLGQPASISCKSSRSLLYSQGKTYLSWFQQRPGQSPRRLIYLVSKLDSGVPDRFSGSGSGTDFTLKISRVEAEDVGVYYCWQGIDFHQTFGGGTKVEIK
B2: anti-MS4A4A antibody 4A-353 (antibody, V domains shown)
VH: B1 VH with S99T, M100L
VL: B1 VL with Q33E
notes: full human IgG
B3: anti-MS4A4A antibody 4A-378 (antibody, V domains shown)
VH: B1 VH
VL: B1 VL with Q33E
B4: anti-MS4A4A antibody 4A-380 (antibody, V domains shown)
VH: B1 VH
VL: B1 VL with Q33S
B5: anti-MS4A4A antibody 4A-377 (antibody, V domains shown)
VH: B1 VH
VL: B1 VL with Q33G
notes: full human IgG
B6: anti-MS4A4A antibody 4A-379 (antibody, V domains shown)
VH: B1 VH
VL: B1 VL with Q33A
B7: anti-MS4A4A antibody 4A-354 (antibody, V domains shown)
VH: B1 VH with S99T, M100L
VL: B1 VL with Q33A
notes: full human IgG
B8: anti-MS4A4A antibody 4A-352 (antibody, V domains shown)
VH: B1 VH with S99T, M100L
VL: B1 VL with Q33G
notes: full human IgG
B9: anti-MS4A4A antibody 4A-356 (antibody, V domains shown)
VH: B1 VH with S99T, M100L
VL: B1 VL
notes: full human IgG
B10: anti-MS4A4A antibody 4A-355 (antibody, V domains shown)
VH: B1 VH with S99T, M100L
VL: B1 VL with Q33S
notes: full human IgG
B11: anti-MS4A4A antibody 4A-314 (antibody, V domains shown)
VH: QVQLVQSGAEVKKPGASVKVSCKASGYTFTNYWMQWVRQAPGQGLEWMGTTLPGHGDTRYAQKFQGRVTMTRDTSTSTVYMELSSLRSEDTAVYYCAREEVYYGFRSYWYFDVWGRGTLVTVSS
VL: EIVLTQSPATLSLSPGERATLSCRASESVDNYGVSRMNWYQQKPGQAPRLLIYGASNQGSGIPARFSGSGSGTDFTLTISSLEPEDFAVYYCQQSKEVPPTFGGGTKVEIK
notes: full human IgG
B12: anti-MS4A4A antibody 4A-312 (antibody, V domains shown)
VH: B11 VH with T50A, L52H, Y102D
VL: B11 VL with R36F, G59Q
notes: full human IgG
B13: anti-MS4A4A antibody 4A-337 (antibody, human IgG1, V domains shown)
VH: B1 VH with A79T, M100L, A101V
VL: B1 VL with V2I, S7T, L11S, R27Q, Q33D, F41L, S48P, R51L, S72A
notes: humanized 4A-21; human IgG1/kappa
B14: anti-MS4A4A antibody 4A-346 (antibody, human IgG1, V domains shown)
VH: QVQLVQSGAEVKKPGASVKVSCKASGYIFTSYGLSWVRQAPGQGLEWMGWINTYSGVPTYAQKFQGRVTMTRDTSTSTVYMELSSLRSEDTAVYYCARSLVDYWGQGTLVTVSS
VL: DIVMTQTPLSLSVTPGQPASISCKSSQSLLYSDGKTYLSWYLQKPGQPPQLLIYLVSKLDSGVPDRFSGSGSGTDFTLKISRVEAEDVGVYYCWQGIDFHQTFGGGTKVEIK
notes: as for B13
B15: anti-MS4A4A antibody 4A-342 (antibody, human IgG1, V domains shown)
VH: B14 VH with V2I
VL: B14 VL with I2V, L51R
notes: as for B13
B16: anti-MS4A4A antibody 4A-344 (antibody, human IgG1, V domains shown)
VH: B14 VH
VL: B14 VL with I2V, L51R
notes: as for B13
B17: anti-MS4A4A antibody 4A-343 (antibody, human IgG1, V domains shown)
VH: B14 VH with V2I, R72L, V79T
VL: B14 VL with I2V, L51R
notes: as for B13
B18: anti-MS4A4A antibody 4A-349 (antibody, human IgG1, V domains shown)
VH: B14 VH with V2I, R72L, V79T
VL: B14 VL
notes: as for B13
B19: anti-MS4A4A antibody 4A-338 (antibody, human IgG1, V domains shown)
VH: B1 VH with A79T, M100L, A101V
VL: B1 VL with S7T, L11S, R27Q, Q33D, F41L, S48P, R51L, S72A
notes: as for B13
B20: anti-MS4A4A antibody 4A-339 (antibody, human IgG1, V domains shown)
VH: B1 VH with A79T, M100L, A101V
VL: B1 VL with S7T, L11S, R27Q, Q33D, F41L, S48P, S72A
notes: as for B13
B21: anti-MS4A4A antibody 4A-348 (antibody, human IgG1, V domains shown)
VH: B14 VH with V2I
VL: B14 VL
notes: as for B13
B22: anti-MS4A4A antibody 4A-308 (antibody, human IgG1, V domains shown)
VH: B11 VH with T50A, L52H, R72A, T74K, V79A
VL: DIVMTQSPDSLAVSLGERATINCRASESVDNYGVSFMNWYQQKPGQPPKLLIYGASNQGSGVPDRFSGSGSGTDFTLTISSLQAEDVAVYYCQQSKEVPPTFGGGTKVEIK
notes: human IgG1/kappa
B23: anti-MS4A4A antibody 4A-304 (antibody, human IgG1, V domains shown)
VH: B11 VH with T50A, L52H
VL: B11 VL with A9G, R36F, A64D, S81R
notes: human IgG1/kappa
B24: anti-MS4A4A antibody 4A-309 (antibody, human IgG1, V domains shown)
VH: B11 VH with T50A, L52H, M70L, R72A, T74K, T76I, V79A, S85R, E89D, A92V
VL: B11 VL with R36F
notes: human IgG1/kappa
B25: anti-MS4A4A antibody 4A-301 (antibody, human IgG1, V domains shown)
VH: B11 VH with T50A, L52H
VL: B22 VL
notes: human IgG1/kappa

biological target: T1, human MS4A4A (human, UniProt Q96JQ5 1-239); experiment: FACS, U937-huMS4A4A, 5 ug/ml
Experimental: (§1) Anti-MS4A4A antibodies tested were either mouse IgGs purified from hybridoma supernatant or human IgG1 Fc chimeras produced recombinantly in Expi293 cells. Affinity binding to cells was determined as follows. Briefly, cells were harvested, washed, and labeled with Aqua Live/Dead for viability discrimination. After a wash with PBS, 2×10\hat{ }4 cells were aliquoted per well in 96-well U-bottom plates and incubated with 50 μL of purified anti-MS4A4A antibody at various concentrations (3× dilutions starting at 10 μg/mL) in FACS buffer (PBS+2% FBS+1 mM EDTA). After this primary incubation, the supernatant was removed via centrifugation, washed 2× with 150 μL of ice-cold FACS buffer, and incubated with the appropriate secondary antibody on ice for 15 minutes. Following the secondary antibody incubation, the cells were again washed 2× with ice-cold FACS buffer and resuspended in a final volume of 200 μL of FACS buffer. Flow cytometry analysis was performed on a FACSCanto system (BD Biosciences). Binding data was expressed as Median Fluorescent Intensity (MFI).
(§2) These experiments were performed using anti-MS4A4A antibodies at a concentration of 5 μg/ml and were assayed for cell binding by flow cytometry.

| MFI | Binder |
| --- | --- |
| 12600 | B1 |
| 10400 | B2 |
| 9910 | B3 |
| 11800 | B4 |
| 12200 | B5 |
| 10600 | B6 |
| 13700 | B7 |
| 11000 | B8 |
| 12000 | B9 |
| 13400 | B10 |
| 15300 | B11 |
| 17700 | B12 |

biological target: T1, human MS4A4A; experiment: FACS, U937-huMS4A4A, 5 ug/ml; remark: another data set of the same source
Experimental: as §1, §2

| MFI | Binder |
| --- | --- |
| 218 | B13 |
| 56.1 | B14 |
| 538 | B15 |
| 427 | B16 |
| 513 | B17 |
| 142 | B18 |
| 222 | B19 |
| 284 | B20 |
| 47.8 | B21 |
| 97.2 | B22 |
| 112 | B23 |
| 131 | B24 |
| 89.7 | B25 |

biological target: T2, recombinant MS4A4A soluble polypeptide JS1; experiment: ELISA, 1 ug/ml antibody
T2 construct: also called JS1.His; loop grafted antigen
Experimental: (§3) Anti-MS4A4A antibodies of the present disclosure were tested for their ability to bind to the different recombinant MS4A4A soluble polypeptides, as described in Example 2, as follows. Nucleic acid encoding the VH and VL domains of humanized anti-MS4A4A antibodies of the present disclosure were cloned into pcDNA3.4 vector which contains either the human IgG1 heavy chain constant domain or human kappa constant domain. The humanized anti-MS4A4A antibodies were expressed in Expi293 cells and were purified by Mab select antibody purification resin (GE Healthcare Life Science, cat#17519902) following the manufacture's protocol. ELISA was performed to measure binding of anti-MS4A4A antibodies of the present disclosure the recombinant MS4A4A soluble polypeptides. 1 μg/ml biotinylated antigens were preincubated on the streptavidin-coated ELISA plates (Thermo Scientific, cat#PI15120) for 1 hour. Plates were washed 3 times, followed by the addition of antibodies (1 μg/ml, 0.33 μg/ml, and 0.11 μg/ml antibodies. Plates were incubated at room temperature with shaking for 1 hr, washed 3 times, then 1/2500 dilution of HRP conjugates goat anti human kappa antibodies added (SigmaAldrich cat#. A7164-1ML).

| OD450 | Binder |
| --- | --- |
| 1.33 | B13 |
| 0.148 | B14 |
| 1.09 | B15 |
| 0.719 | B16 |
| 1.37 | B17 |
| 0.331 | B18 |
| 1.65 | B19 |
| 1.76 | B20 |
| 0.131 | B21 |
| 0.12 | B22 |
| 0.11 | B23 |
| 0.115 | B24 |
| 0.116 | B25 |

biological target: T3, recombinant MS4A4A soluble polypeptide JS5; experiment: ELISA, 1 ug/ml antibody
T3 construct: also called JS5.His
Experimental: as §3

| ELISA OD | Binder |
| --- | --- |
| 1 | B1 |
| 0.996 | B2 |
| 0.944 | B3 |
| 0.981 | B4 |
| 0.928 | B5 |
| 0.893 | B6 |
| 0.98 | B7 |
| 0.985 | B8 |
| 0.927 | B9 |
| 0.961 | B10 |
| 1.14 | B11 |
| 0.184 | B12 |

biological target: T3, recombinant MS4A4A soluble polypeptide …; experiment: ELISA, 0.11 ug/ml antibody
Experimental: as §3

| ELISA OD | Binder |
| --- | --- |
| 0.685 | B1 |
| 0.63 | B2 |
| 0.636 | B3 |
| 0.654 | B4 |
| 0.577 | B5 |
| 0.543 | B6 |
| 0.701 | B7 |
| 0.655 | B8 |
| 0.746 | B9 |
| 0.721 | B10 |
| 0.399 | B11 |
| 0.097 | B12 |

biological target: T3, recombinant MS4A4A soluble polypeptide …; experiment: ELISA, 0.33 ug/ml antibody
Experimental: as §3

| ELISA OD | Binder |
| --- | --- |
| 0.94 | B1 |
| 0.85 | B2 |
| 0.848 | B3 |
| 0.916 | B4 |
| 0.873 | B5 |
| 0.812 | B6 |
| 0.874 | B7 |
| 0.885 | B8 |
| 0.85 | B9 |
| 0.878 | B10 |
| 0.682 | B11 |
| 0.11 | B12 |
